Source: patent US20170267752A1 (Ablynx, published 2017)
Substitutions are numbered along the chain they refer to. Numbers in names are those of the source. Each block holds one binder with its values, some of them ahead of it.

Legend:
[1] = biological target: membrane bound human TNF (mTNF), human TNF R77T/S78T variant on HEK293H-mTNF cells (human) (UniProt P01375); assay: competition FACS on HEK293H-mTNF cells, competitor Enbrel at EC90 (0.2 nM)
[2] = biological target: membrane bound human TNF (mTNF), human TNF R77T/S78T variant on HEK293H-mTNF cells (human) (UniProt P01375); assay: competition FACS on HEK293H-mTNF cells, competitor Enbrel at EC30 (0.02 nM)
[3] = biological target: biot-hTNFα (human, UniProt P01375 77-233, biotinylated (site not stated)); assay: competition ELISA according to Example 5 (assay not given)
Method: The SHIME model consists of five reactors which sequentially simulate the stomach (acid conditions and pepsin digestion), small intestine (digestive processes) and the 3 regions of the large intestine, i.e. the ascending (“A”), transverse (“T”) and descending colon (“D”) (microbial processes). […] All GI fluids were provided by ProDigest (Technologiepark 4, 9052 Zwijnaarde, Belgium). The anti-TNF Nanobodies were tested for a maximum period of 39 hours in the GI-fluids. After the incubation in the GI-fluids, stability of the Nanobodies was determined via functionality testing in a competition ELISA. The Nanobodies were tested at a fixed concentration of 100 μg/ml at 37° C. in 5 different GI fluids in the SHIMS model. At different time-points samples were taken and stored in the −20° C. with or without the addition of protease inhibitors, according to the schedule in Table 5.1. The samples were transferred to coated ELISA plates and subsequently tested in the competition ELISA. […] After blocking, a fixed concentration of 0.3 nM biot-hTNFα together with a titration series of the variants in the different GI fluids was added. Detection was performed with extravidin-HRP.

membrane bound human TNF (mTNF), human TNF R77T/S78T variant on HEK293H-mTNF cells (human), sequence (P01375 whole entry, stated change not applied): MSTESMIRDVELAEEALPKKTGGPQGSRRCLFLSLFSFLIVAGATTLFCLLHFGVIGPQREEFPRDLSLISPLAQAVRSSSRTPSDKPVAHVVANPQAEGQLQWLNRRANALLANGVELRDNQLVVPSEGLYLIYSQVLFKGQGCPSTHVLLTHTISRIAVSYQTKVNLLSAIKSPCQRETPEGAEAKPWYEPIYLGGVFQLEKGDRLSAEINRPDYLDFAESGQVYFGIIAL
biot-hTNFα, sequence (P01375 77-233 limits assumed): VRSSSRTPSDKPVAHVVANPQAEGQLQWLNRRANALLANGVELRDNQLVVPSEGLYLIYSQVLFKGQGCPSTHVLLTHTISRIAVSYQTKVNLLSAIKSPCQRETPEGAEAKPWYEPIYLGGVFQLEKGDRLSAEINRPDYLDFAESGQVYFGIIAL

B2: A016600038 (VHH)
VHH: DVQLVESGGGVVQPGGSLRLSCTASGFTFSTADMGWFRQAPGKGREFVARISGIDGTTYYDEPVKGRFTISRDNAKNTVYLQMNSLRPEDTALYYCRSPRYADQWSAYDYWGQGTLVTVSS
IC50 [1]: 0.7 nM | IC50 [2]: 0.43 nM

B4: A016600052 (VHH)
VHH: B2 VHH with A49C, I70C, A75S, Y108L
notes: S49C, I69C (intradomain disulfide) and Y100dL
IC50 [3]: 3.56 nM | fold increase of IC50 compared to 00021 [3]: 2 to 5 fold

B5: A016600046 (VHH)
VHH: B2 VHH with A75S, Y108L
notes: Y100dL substitution in CDR3; also called A016600046 100dL; A016600046 Y100dL
IC50 [3]: 1.13 nM | fold increase of IC50 compared to 00021 [3]: 2 to 5 fold

Continued, values first:

IC50 [1]: 0.65 nM | IC50 [2]: 0.43 nM | IC50 [3]: 0.67 nM
B1: A016600021 (VHH)
VHH: B2 VHH with A75S

IC50 [1]: 0.76 nM | IC50 [2]: 0.54 nM
B3: A016600045 (VHH)
VHH: B2 VHH with A75S, Y108H
